How the values were obtained:
CM244 gp120 = biological target: T1, CM244 gp120 (HIV-1 isolate CM244 (CRF01_AE; printed …, UniProt Q4QX31, strain); assay: flow cytometry on cells; blocking format: HmAb64 added to biotinylated gp120 in the staining of primary human CD4+ T cells; loss of gp120 staining read out (2, 4, 8 ug HmAb64 with 2 ug ADA gp120 in panel b); settings: both partners purified
T1 construct: also called CM244 (AE); CM224

SF162 gp120 = biological target: T2, SF162 gp120 (HIV-1 (SF162), UniProt P19550); assay: as above; settings: both partners purified
T2 construct: also called SF162 (B)

AD8 gp120 = biological target: T3, AD8 gp120 (HIV-1 subtype B, AD8, UniProt O40222, strain); assay: as above; settings: both partners purified
T3 construct: also called AD8 (B)

MW959 gp120 = biological target: T4, MW959 gp120 (HIV-1 subtype C, 93MW959 (isolate 959 …, strain)); assay: as above; settings: both partners purified
T4 construct: also called MW959 (C)

A244 gp120 = A244 gp120 (HIV-1 isolate A244); assay: SPR; Biacore 3000, CM4 or CM5 chip; gp120 or BG505-SOSIP immobilised by amine coupling to about 750 RU; HBS pH 7.4, 3 mM EDTA, 0.005% Tween-20, 0.05% carboxymethyl-dextran; 25 ul/min, 25 C; settings: both partners purified
[1] = biological target: gp120 A2 (clade A, 92UG037.8) (HIV-1 isolate 92UG037.8 (clade A), UniProt Q70200, strain); assay: ELISA; HmAb64 on gp120, gp120-Core or their D368R mutant protein, as previously described; settings: both partners purified
[2] = biological target: gp120 Czm (clade C, 96ZM652) (HIV-1 subtype C, named 96ZM652; entry …, strain); assay: as above; settings: both partners purified
[3] = biological target: T5, wild-type gp120 Env protein, HIV-1 isolate JR-FL (HIV-1 isolate JR-FL, UniProt Q75760, strain); assay: as above; settings: both partners purified
T5 construct: also called JR-FL gp120

[4] = biological target: T6, wild-type gp120 Env protein, HIV-1 isolate YU2 (HIV-1 isolate YU2, UniProt P35961); assay: as above; settings: both partners purified
T6 construct: also called YU2 gp120

[5] = biological target: T7, biotinylated gp120 of HIV-1 CM244 (HIV-1 isolate CM244 (CRF01_AE; printed …, UniProt Q4QX31, strain); assay: flow cytometry on cells; HmAb64 added to biotinylated gp120 and read by the loss of gp120 staining of primary CD4+ T cells; settings: both partners purified
T7 construct: also called CM224 (as printed in the methods)

[6] = biological target: biotinylated gp120 of HIV-1 SF162 (HIV-1 isolate SF162, UniProt P19550, strain); assay: as above; settings: both partners purified
[7] = biological target: T8, HIV-1 SF162 Env on infected human CD4+ T cells (HIV-1 isolate SF162, UniProt P19550, strain); assay: flow cytometry on cells; primary human CD4+ T cells infected with HIV SF162 for 3 days, stained with HmAb64 (2 ug), goat anti-human-PE; settings: one partner purified
T8 construct: also called HIV-1 SF162 infected CD4+ T cells; source: primary human CD4+ T cells infected with HIV SF162, on the cell surface

Measured: binding result

B1: HmAb64 (antibody, V domains shown)
VH: QVQLVQSGAEVKKPGASVKVSCKASGYTFTSYDITWVRQAPGQGLEWMGWISAYNGDTNYAQRLQGRVTMTTDTSTSTAYMELRSLRSDDTAVYYCARAKHTVLVTAMRWFDPWGQGTLVTVSS
VL: DIQMTQSPSSLSASVGDRVTITCRASQSISNYLNWYQQKPGKAPKLLISATSSLQSGVPSRFSGSGSGTDFTLTISSLQPDDFATYYCQQSYSTPWTFGQGTKLEIK
notes: also called HmAb64 mAb; source: Freestyle 293F cells, transfected, purified (Protein A HP columns)
binds: CM244 gp120 | SF162 gp120 | AD8 gp120 | MW959 gp120

B2: HmAb64 (antibody, V domains shown)
VH: B1 VH
VL: B1 VL
notes: also called human IgG (HmAb64); clone #64; source: Freestyle 293F cells, transfected (mAb64-HC/pJW4303 and mAb64-KC/pJW4303), purified from supernatant (Protein A)
not listed: CM244 gp120 | SF162 gp120 | AD8 gp120 | MW959 gp120
binds: all other assays above

— article PMC11109196 (Nature Communications, 2024)
